# According to publication PMC9352680, “A comprehensive thermodynamic model for RNA binding by the Saccharomyces cerevisiae Pumilio protein PUF4”:
# T1: PUF4 RNA-binding domain (Saccharomyces cerevisiae, UniProt P25339 537-888)
# T1 sequence: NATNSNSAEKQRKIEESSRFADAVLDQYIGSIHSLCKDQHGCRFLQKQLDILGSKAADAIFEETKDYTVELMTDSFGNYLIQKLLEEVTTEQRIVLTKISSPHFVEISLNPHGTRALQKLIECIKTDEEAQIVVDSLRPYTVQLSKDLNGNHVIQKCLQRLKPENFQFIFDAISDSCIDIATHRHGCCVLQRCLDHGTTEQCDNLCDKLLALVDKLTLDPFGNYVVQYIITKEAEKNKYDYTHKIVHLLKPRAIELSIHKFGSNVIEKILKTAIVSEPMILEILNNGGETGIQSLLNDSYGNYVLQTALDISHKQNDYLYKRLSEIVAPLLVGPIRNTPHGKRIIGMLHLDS
# Target: T1, PUF4 RNA-binding domain
# Test: Mg; RNA-MaP; 20 mM Na-HEPES pH 7.4, 30 mM KOAc, 0.75 mM MgCl2, 0.1% Tween-20, 5% glycerol, 0.1 mg/mL BSA, 2 mM DTT; 25 C; 0.0125-409.6 nM protein
# Settings: tags: N-His6-TEV cleaved; C-SNAP kept, Cy3B-labelled; label: tethered on chip by stalled RNA polymerase
row,Binder,Kd
1,UCUCUUCUUGUAUUAUUAUCUCUCUU (ssRNA) [Id_ii_S1_P5E.2_K5.1_C5.2_H5.1_A5.1_F5.1_T5.2_[A12C]],5.07 nM
2,UCUCUUUCUAUAUUAUUAUUUCUCUU (ssRNA) [Id_ii_S1_P5E.3_K5.2_C5.2_[C-2T]_[T-1C]_H5.2_A5.1_F5.1_T5.2_[A12T]],402 nM
3,UCUCUUGCUAUAUUAUUAAUUCUCUU (ssRNA) [Id_ii_S1_P5E.3_K5.2_C5.2_[C-2G]_[T-1C]_H5.2_A5.1_F5.1_T5.2_[T11A]_[A12T]],343 nM
4,UCUCUUUAUAUAUUAUUAGCUCUCUU (ssRNA) [Id_ii_S1_P5E.3_K5.2_C5.2_[C-2T]_[T-1A]_H5.2_A5.1_F5.1_T5.2_[T11G]_[A12C]],13.7 nM
5,UCUCUUCUUGUAUUAUUAGCUCUCUU (ssRNA) [Id_ii_S1_P5E.2_K5.1_C5.2_H5.1_A5.1_F5.1_T5.2_[T11G]_[A12C]],2.47 nM
6,UCUCUUUCUAUAUUAUUACAUCUCUU (ssRNA) [Id_ii_S1_P5E.3_K5.2_C5.2_[C-2T]_[T-1C]_H5.2_A5.1_F5.1_T5.2_[T11C]],630 nM
7,UCUCUUUCUAUAUUAUUAAUUCUCUU (ssRNA) [Id_ii_S1_P5E.3_K5.2_C5.2_[C-2T]_[T-1C]_H5.2_A5.1_F5.1_T5.2_[T11A]_[A12T]],615 nM
8,UCUCUUGCUAUAUUAUUAUUUCUCUU (ssRNA) [Id_ii_S1_P5E.3_K5.2_C5.2_[C-2G]_[T-1C]_H5.2_A5.1_F5.1_T5.2_[A12T]],391 nM
9,UCUCUUUCUAUAUUAUUAUCUCUCUU (ssRNA) [Id_ii_S1_P5E.3_K5.2_C5.2_[C-2T]_[T-1C]_H5.2_A5.1_F5.1_T5.2_[A12C]],455 nM
10,UCUCUUUUUAUAUUAUUACGUCUCUU (ssRNA) [Id_ii_S1_P5E.3_K5.2_C5.2_[C-2T]_H5.2_A5.1_F5.1_T5.2_[T11C]_[A12G]],434 nM
11,UCUCUUUGUAUAUUAUUAAAUCUCUU (ssRNA) [Id_ii_S1_P5E.3_K5.2_C5.2_[C-2T]_[T-1G]_H5.2_A5.1_F5.1_T5.2_[T11A]],0.467 nM
12,UCUCUUGCUAUAUUAUUACCUCUCUU (ssRNA) [Id_ii_S1_P5E.3_K5.2_C5.2_[C-2G]_[T-1C]_H5.2_A5.1_F5.1_T5.2_[T11C]_[A12C]],340 nM
13,UCUCUUGUUAUAUUAUUAGUUCUCUU (ssRNA) [Id_ii_S1_P5E.3_K5.2_C5.2_[C-2G]_H5.2_A5.1_F5.1_T5.2_[T11G]_[A12T]],15.3 nM
14,UCUCUUUAUAUAUUAUUAAUUCUCUU (ssRNA) [Id_ii_S1_P5E.3_K5.2_C5.2_[C-2T]_[T-1A]_H5.2_A5.1_F5.1_T5.2_[T11A]_[A12T]],21 nM
15,UCUCUUGUUAUAUUAUUACUUCUCUU (ssRNA) [Id_ii_S1_P5E.3_K5.2_C5.2_[C-2G]_H5.2_A5.1_F5.1_T5.2_[T11C]_[A12T]],13.4 nM
16,UCUCUUUCUAUAUUAUUAAAUCUCUU (ssRNA) [Id_ii_S1_P5E.3_K5.2_C5.2_[C-2T]_[T-1C]_H5.2_A5.1_F5.1_T5.2_[T11A]],557 nM
17,UCUCUUGCUAUAUUAUUACAUCUCUU (ssRNA) [Id_ii_S1_P5E.3_K5.2_C5.2_[C-2G]_[T-1C]_H5.2_A5.1_F5.1_T5.2_[T11C]],509 nM
18,UCUCUUUAUAUAUUAUUACCUCUCUU (ssRNA) [Id_ii_S1_P5E.3_K5.2_C5.2_[C-2T]_[T-1A]_H5.2_A5.1_F5.1_T5.2_[T11C]_[A12C]],14.1 nM
19,UCUCUUUAUAUAUUAUUAUCUCUCUU (ssRNA) [Id_ii_S1_P5E.3_K5.2_C5.2_[C-2T]_[T-1A]_H5.2_A5.1_F5.1_T5.2_[A12C]],21 nM

row,Binder,Kd
1,UCUCUUCUUGUAUUAUUAUGUCUCUU (ssRNA) [Id_ii_S1_P5E.2_K5.1_C5.2_H5.1_A5.1_F5.1_T5.2_[A12G]],5.83 nM
2,UCUCUUUUUAUAUUAUUACUUCUCUU (ssRNA) [Id_ii_S1_P5E.3_K5.2_C5.2_[C-2T]_H5.2_A5.1_F5.1_T5.2_[T11C]_[A12T]],414 nM
3,UCUCUUUAUAUAUUAUUAAAUCUCUU (ssRNA) [Id_ii_S1_P5E.3_K5.2_C5.2_[C-2T]_[T-1A]_H5.2_A5.1_F5.1_T5.2_[T11A]],25.4 nM
4,UCUCUUUAUAUAUUAUUAGUUCUCUU (ssRNA) [Id_ii_S1_P5E.3_K5.2_C5.2_[C-2T]_[T-1A]_H5.2_A5.1_F5.1_T5.2_[T11G]_[A12T]],22.2 nM
5,UCUCUUCUUGUAUUAUUAACUCUCUU (ssRNA) [Id_ii_S1_P5E.2_K5.1_C5.2_H5.1_A5.1_F5.1_T5.2_[T11A]_[A12C]],5.25 nM
6,UCUCUUUGUAUCAUAUCUCUU (ssRNA) [Ic_S1_P4E.1_K4.1_C4.1_H4.1_A4.1_[A6C]_[T7A]_F4.1_T4.1],1.04 nM
7,UCUCUUUGUAUAUUAUUAUUUCUCUU (ssRNA) [Id_ii_S1_P5E.3_K5.2_C5.2_[C-2T]_[T-1G]_H5.2_A5.1_F5.1_T5.2_[A12T]],0.826 nM
8,UCUCUUUGUAUUAUGAUCUCUU (ssRNA) [Ia_S1_P5E.1_K5.1_C5.1_H5.1_A5.1_F5.1_[T9G]_T5.1],15.3 nM
9,UCUCUUUAUAUAUUAUUAACUCUCUU (ssRNA) [Id_ii_S1_P5E.3_K5.2_C5.2_[C-2T]_[T-1A]_H5.2_A5.1_F5.1_T5.2_[T11A]_[A12C]],15.9 nM
10,UCUCUUCUUGUAUUAUUAUUUCUCUU (ssRNA) [Id_ii_S1_P5E.2_K5.1_C5.2_H5.1_A5.1_F5.1_T5.2_[A12T]],4.09 nM
11,UCUCUUUGUAUAUUAUUAGCUCUCUU (ssRNA) [Id_ii_S1_P5E.3_K5.2_C5.2_[C-2T]_[T-1G]_H5.2_A5.1_F5.1_T5.2_[T11G]_[A12C]],0.703 nM
12,UCUCUUUGUAUAUUAUUAACUCUCUU (ssRNA) [Id_ii_S1_P5E.3_K5.2_C5.2_[C-2T]_[T-1G]_H5.2_A5.1_F5.1_T5.2_[T11A]_[A12C]],0.55 nM
13,UCUCUUGCUAUAUUAUUAACUCUCUU (ssRNA) [Id_ii_S1_P5E.3_K5.2_C5.2_[C-2G]_[T-1C]_H5.2_A5.1_F5.1_T5.2_[T11A]_[A12C]],346 nM
14,UCUCUUUGUAUAUUAUUAAUUCUCUU (ssRNA) [Id_ii_S1_P5E.3_K5.2_C5.2_[C-2T]_[T-1G]_H5.2_A5.1_F5.1_T5.2_[T11A]_[A12T]],0.615 nM
15,UCUCUUUGUAUGAUAUCUCUU (ssRNA) [Ib_S1_P4E.1_K4.1_C4.1_H4.1_A4.1_[A6G]_[T7A]_F4.1_T4.1],4.57 nM
16,UCUCUUUCUAUAUUAUUACCUCUCUU (ssRNA) [Id_ii_S1_P5E.3_K5.2_C5.2_[C-2T]_[T-1C]_H5.2_A5.1_F5.1_T5.2_[T11C]_[A12C]],388 nM
17,UCUCUUCUUGUAUUAUUAAAUCUCUU (ssRNA) [Id_ii_S1_P5E.2_K5.1_C5.2_H5.1_A5.1_F5.1_T5.2_[T11A]],9.5 nM
18,UCUCUUUAUAUAUUAUUACGUCUCUU (ssRNA) [Id_ii_S1_P5E.3_K5.2_C5.2_[C-2T]_[T-1A]_H5.2_A5.1_F5.1_T5.2_[T11C]_[A12G]],18.1 nM
19,UCUCUUUCUAUAUUAUUAAGUCUCUU (ssRNA) [Id_ii_S1_P5E.3_K5.2_C5.2_[C-2T]_[T-1C]_H5.2_A5.1_F5.1_T5.2_[T11A]_[A12G]],582 nM

row,Binder,Kd
1,UCUCUUUCUAUAUUAUUACGUCUCUU (ssRNA) [Id_ii_S1_P5E.3_K5.2_C5.2_[C-2T]_[T-1C]_H5.2_A5.1_F5.1_T5.2_[T11C]_[A12G]],494 nM
2,UCUCUUUCUAUAUUAUUAACUCUCUU (ssRNA) [Id_ii_S1_P5E.3_K5.2_C5.2_[C-2T]_[T-1C]_H5.2_A5.1_F5.1_T5.2_[T11A]_[A12C]],581 nM
3,UCUCUUUUUAUAUUAUUAGCUCUCUU (ssRNA) [Id_ii_S1_P5E.3_K5.2_C5.2_[C-2T]_H5.2_A5.1_F5.1_T5.2_[T11G]_[A12C]],160 nM
4,UCUCUUGCUAUAUUAUUACGUCUCUU (ssRNA) [Id_ii_S1_P5E.3_K5.2_C5.2_[C-2G]_[T-1C]_H5.2_A5.1_F5.1_T5.2_[T11C]_[A12G]],549 nM
5,UCUCUUCUUGUAUUAUUAAUUCUCUU (ssRNA) [Id_ii_S1_P5E.2_K5.1_C5.2_H5.1_A5.1_F5.1_T5.2_[T11A]_[A12T]],8.8 nM
6,UCUCUUUGUAUCCUAUCUCUU (ssRNA) [Ic_S1_P4E.1_K4.1_C4.1_H4.1_A4.1_[A6C]_[T7C]_F4.1_T4.1],4.4 nM
7,UCUCUUUGUAUAUUAUUAUCUCUCUU (ssRNA) [Id_ii_S1_P5E.3_K5.2_C5.2_[C-2T]_[T-1G]_H5.2_A5.1_F5.1_T5.2_[A12C]],0.576 nM
8,UCUCUUCUUGUAUUAUUAGUUCUCUU (ssRNA) [Id_ii_S1_P5E.2_K5.1_C5.2_H5.1_A5.1_F5.1_T5.2_[T11G]_[A12T]],3.87 nM
9,UCUCUUUAUAUAUUAUUAUUUCUCUU (ssRNA) [Id_ii_S1_P5E.3_K5.2_C5.2_[C-2T]_[T-1A]_H5.2_A5.1_F5.1_T5.2_[A12T]],17.6 nM
10,UCUCUUUUUAUAUUAUUACAUCUCUU (ssRNA) [Id_ii_S1_P5E.3_K5.2_C5.2_[C-2T]_H5.2_A5.1_F5.1_T5.2_[T11C]],497 nM
11,UCUCUUGUUAUAUUAUUAAAUCUCUU (ssRNA) [Id_ii_S1_P5E.3_K5.2_C5.2_[C-2G]_H5.2_A5.1_F5.1_T5.2_[T11A]],17.7 nM
12,UCUCUUUGUAUUGUAUCUCUU (ssRNA) [Ib_S1_P4E.1_K4.1_C4.1_H4.1_A4.1_[A6T]_[T7G]_F4.1_T4.1],7.79 nM
13,UCUCUUUAUAUAUUAUUACUUCUCUU (ssRNA) [Id_ii_S1_P5E.3_K5.2_C5.2_[C-2T]_[T-1A]_H5.2_A5.1_F5.1_T5.2_[T11C]_[A12T]],13.3 nM
14,UCUCUUGUUAUAUUAUUACGUCUCUU (ssRNA) [Id_ii_S1_P5E.3_K5.2_C5.2_[C-2G]_H5.2_A5.1_F5.1_T5.2_[T11C]_[A12G]],22 nM
15,UCUCUUGCUAUAUUAUUAUCUCUCUU (ssRNA) [Id_ii_S1_P5E.3_K5.2_C5.2_[C-2G]_[T-1C]_H5.2_A5.1_F5.1_T5.2_[A12C]],307 nM
16,UCUCUUUCUAUAUUAUUACUUCUCUU (ssRNA) [Id_ii_S1_P5E.3_K5.2_C5.2_[C-2T]_[T-1C]_H5.2_A5.1_F5.1_T5.2_[T11C]_[A12T]],390 nM
17,UCUCUUUGUAUCGUAUCUCUU (ssRNA) [Ic_S1_P4E.1_K4.1_C4.1_H4.1_A4.1_[A6C]_[T7G]_F4.1_T4.1],12.3 nM
18,UCUCUUGUUAUAUUAUUAUCUCUCUU (ssRNA) [Id_ii_S1_P5E.3_K5.2_C5.2_[C-2G]_H5.2_A5.1_F5.1_T5.2_[A12C]],16.3 nM
19,UCUCUUGUUAUAUUAUUACCUCUCUU (ssRNA) [Id_ii_S1_P5E.3_K5.2_C5.2_[C-2G]_H5.2_A5.1_F5.1_T5.2_[T11C]_[A12C]],9 nM
